Measured values from PMC4743925, “Targeting an Essential GTPase Obg for the Development of Broad-Spectrum Antibiotics” (PLoS ONE, 2016).

Substrate: Nc1nc2c(ncn2[C@@H]2O[C@H](COP(=O)(O)OP(=O)(O)OP(=O)(O)O)[C@@H](O)[C@H]2O)c(=O)[nH]1
Test: BIOMOL Green (malachite green) phosphate release
Assay type: biochemical, Neisseria gonorrhoeae
Conditions: 5 μM protein, 10-1000 μM GTP, 6 h, 37 °C, pH 8.0, 10 mM MgCl2, 50 mM KCl

B1: ObgGC (Neisseria gonorrhoeae FA 1090) (protein)
chain: MKFIDEAKIEVAAGKGGNGATSFRREKFVPRGGPDGGDGGKGGSVWAEADENTNTLVEYRFVKRYQAKNGEKGHGSDRYGAGADDIVLKMPVGTLIRDLDTDEIVADLTYHGQRVCLAKGGKGGLGNIHFKSSVNRAPKQSTPGEEGETRSLQLELKVLADVGLLGMPNAGKSTLITAVSAARPKIANYPFTTLHPNLGVVRIDENHSFVMADIPGLIEGAAEGAGLGHRFLKHLSRTGLLLHVVDLAPFDETVNPAEEALAIINELRKYDEELYGKPRWLVLNKLDMLDEEEARARTAAFLEAVGWDYPEPDDRFQFDMETPRLFQISALTHQGTQELVHQINQYLAEKKRIEAEKAEAEKAAANVEIIEQQPKTDTGVFKPE
notes: full-length with C-terminal 6xHis tag, expressed in E. coli BL21(DE3), IMAC and size exclusion; tag not reported cut
  Km: 78.76 µM
